# Results published in publication PMC6854500.
# Tests used:
# [1] = molecular target: PEDV CV777 S soluble ectodomain (residues 1 to 1319) with C-terminal T4 fibritin trimerization motif (porcine epidemic diarrhea virus, strain CV777 | bacteriophage T4) (UniProt Q91AV1); assay: SEC; Superose6 10/300 column, 2 mM Tris (pH 8.0), 200 mM NaCl, 0.02% NaN3; single symmetrical peak
# [2] = molecular target: PEDV CV777 S soluble ectodomain (residues 1 to 1319) with C-terminal T4 fibritin trimerization motif (porcine epidemic diarrhea virus, strain CV777 | bacteriophage T4) (UniProt Q91AV1); assay: cryo-EM structure; PEDV S CV777 at 0.4 mg/ml in 2 mM Tris (pH 8.0), 200 mM NaCl, 0.02% NaN3, 0.01% Amphipol A8-35; Titan Krios 300 kV; 3.3 Å without symmetry, 3.1 Å with C3; a 10-Å reconstruction with 2 mM 3'-sialyllactose was indistinguishable
# [3] = molecular target: dissociated PEDV CV777 S1 subunit (S1 ring) (porcine epidemic diarrhea virus, strain CV777) (UniProt Q91AV1); assay: cryo-EM structure; roughly 10% of the particles of the PEDV CV777 S data set, 2D classes and a 9.4-Å reconstruction without imposed symmetry (C1)
Substance,stoichiometry N [1],stoichiometry N [2],stoichiometry N [3]
PEDV CV777 S soluble ectodomain (residues 1 to 1319) with C-terminal T4 fibritin trimerization motif (from UniProt Q91AV1 26-1319) (domain or fragment),3,3,
dissociated PEDV CV777 S1 subunit (S1 ring) (from UniProt Q91AV1 26-1383) (domain or fragment),,,3
